Publication doi:10.1101/2022.03.02.482641v1

Substrate: NC(=O)c1ccc[n+]([C@@H]2O[C@H](COP(=O)([O-])OP(=O)(O)OC[C@H]3O[C@@H](n4cnc5c(N)ncnc54)[C@H](O)[C@@H]3O)[C@@H](O)[C@H]2O)c1
Assay: purified protein

Protein | Km | kcat
zfSARM1 (zebrafish SARM1, zfSARM1 w.t.) (Danio rerio) (protein) DRLTVPEYVSSRLHNRRTAPDPRAVSPGISTDVQAVLDGSLPALRSAIRTLRSSKDTGDLEETRRAIAETFQLVEEAWVLPTVGRRVAEEICNRIRLDGGLELLLQLMQTPAVEITYESAKLLEQILVSENRDYVARMGLGVILNLTREQEDAQLARSVSGILEHMFKHTEETSAQLITNGALDTILYWCRGTDPTVLRHCAVALSNCAMYGGHRCQRLMIEKQAAEWLFPLAFSKEDELIRFHACLAVAVLAANREMEKEVVKSGTLELVEPFIASLDPDEFARNMLDSADSMQGRTAADLQHLLPLLDGTRLEGKCIAAFYLCVETSIKSRQRNTKIFQEIGAVQSLKRIVMYSSNATVCSLAKRALKMMSEEVPRRILSSVPNWKSGEVQTWLQQIGFSAFSERFQELQVDGDLLLNITEQDLIQDLGMTSGLTRKRFLRDLRVLKTYANYSTCDPNNLADWLADADPRFRQYTYGLVQSGVDRNNIVHITDQQLLTDCHVENGIHRAKILSAARRPSKPCLTDSQPKGPDVFISYRRTTGSQLASLLKVHLQLRGFSVFIDVEKLEAGRFEEKLITSVQRARNFILVLSANALDKCMGDVAMKDWVHKEIVTALNGKKNIVPVTDNFVWPDPTSLPEDMSTILKFNGIKWSHEYQEATIEKILRFLEGCPSQEKPDGAKTDKKEPQKK | 28 µM | 6.85 s⁻¹
hSARM1 (hSARM1 w.t., near-intact, 26ERL...GPT724) (Homo sapiens) (protein) ERLAVPGPDGGGGTGPWWAAGGRGPREVSPGAGTEVQDALERALPELQQALSALKQAGGARAVGAGLAEVFQLVEEAWLLPAVGREVAQGLCDAIRLDGGLDLLLRLLQAPELETRVQAARLLEQILVAENRDRVARIGLGVILNLAKEREPVELARSVAGILEHMFKHSEETCQRLVAAGGLDAVLYWCRRTDPALLRHCALALGNCALHGGQAVQRRMVEKRAAEWLFPLAFSKEDELLRLHACLAVAVLATNKEVEREVERSGTLALVEPLVASLDPGRFARCLVDASDTSQGRGPDDLQRLVPLLDSNRLEAQCIGAFYLCAEAAIKSLQGKTKVFSDIGAIQSLKRLVSYSTNGTKSALAKRALRLLGEEVPRPILPSVPSWKEAEVQTWLQQIGFSKYCESFREQQVDGDLLLRLTEEELQTDLGMKSGITRKRFFRELTELKTFANYSTCDRSNLADWLGSLDPRFRQYTYGLVSCGLDRSLLHRVSEQQLLEDCGIHLGVHRARILTAAREMLHSPLPCTGGKPSGDTPDVFISYRRNSGSQLASLLKVHLQLHGFSVFIDVEKLEAGKFEDKLIQSVMGARNFVLVLSPGALDKCMQDHDCKDWVHKEIVTALSCGKNIVPIIDGFEWPEPQVLPEDMQAVLTFNGIKWSHEYQEATIEKIIRFLQGRSSRDSSAGSDTSLEGAAPMGPT | 33 µM | 3.65 s⁻¹
